Experimental data as given in patent publication US11306156.
Where “and” joins values, the source holds several entries; their conditions need not be identical. Equal entries are not always repeated. Values belong to the substance of their own block, whether it stands above or below them.

Columns and labels:
[1] = molecular target: D3H44 light chain Q124E_Q160E_T180E_C214S; test: LCCA, SPR tag readout, L1:L2 DNA 1:3 normalized to 1:1; competitor m20
[2] = molecular target: D3H44 light chain P44F_S131K; test: LCCA, SPR tag readout, L1:L2 DNA 1:3 normalized to 1:1; competitor m22
[3] = molecular target: D3H44 light chain P44F_S131K; test: LCCA, SPR tag readout, L1:L2 DNA 1:9 normalized to 1:1; competitor m22
[4] = molecular target: D3H44 light chain Q124E_Q160E_T180E_C214S; test: LCCA, SPR tag readout, L1:L2 DNA 1:9 normalized to 1:1; competitor m20
[5] = molecular target: D3H44 light chain Q124E_T180E (Kabat), N-terminal HA or FLAG tag; test: LCCA co-expression, competing light chain m36, L1:L2 DNA 1:3 normalized to 1:1, SPR tag read-out
[6] = molecular target: D3H44 light chain S131K (Kabat), N-terminal HA or FLAG tag; test: LCCA co-expression, competing light chain m37, L1:L2 DNA 1:3 normalized to 1:1, SPR tag read-out
[7] = molecular target: tissue factor (TF) antigen (UniProt P13726); test: SPR (ProteOn), Fab captured via anti-penta-His, TF injected, 1:1 fit; reference wild-type D3H44 Fab
[8] = molecular target: tissue factor (TF) antigen (UniProt P13726); test: SPR (ProteOn), Fab captured via anti-penta-His, TF injected, 1:1 fit
[9] = molecular target: tissue factor (TF) antigen (UniProt P13726); test: SPR, Fab captured on anti-penta-His, TF as analyte; against wild-type D3H44 Fab
[10] = molecular target: tissue factor (TF) antigen (UniProt P13726); test: SPR, Fab captured on anti-penta-His, TF as analyte, 1:1 fit
[11] = molecular target: tissue factor (TF) antigen (UniProt P13726); test: SPR (ProteOn XPR36), Fab captured on anti-penta His surface, TF injected, 1:1 fit; reference wild-type D3H44 Fab
[12] = molecular target: tissue factor (TF) antigen (UniProt P13726); test: SPR (ProteOn XPR36), Fab captured on anti-penta His surface, TF injected, 1:1 fit
[13] = molecular target: tissue factor (TF) antigen (human (from the antibody's name 'anti-human tissue factor'; not stated for the antigen lot in the assay)) (UniProt P13726); test: SPR (ProteOn XPR36): Fab captured via His tag on anti-penta His surface, TF injected, 1:1 fit; batch C (+)
[14] = molecular target: tissue factor (TF) antigen (human (from the antibody's name 'anti-human tissue factor'; not stated for the antigen lot in the assay)) (UniProt P13726); test: SPR (ProteOn XPR36), Fab captured on anti-penta His, TF analyte; against wild-type D3H44 Fab; batch C (+)
[15] = molecular target: tissue factor (TF) antigen (UniProt P13726); test: SPR (ProteOn XPR36), Fab captured on anti-penta His surface, TF injected, 1:1 fit; batch C ('+')
[16] = molecular target: tissue factor (TF) antigen (UniProt P13726); test: SPR (ProteOn XPR36), Fab captured on anti-penta His surface, TF injected, 1:1 fit; batch C ('+'); reference wild-type D3H44 Fab
[17] = molecular target: tissue factor (TF) antigen (UniProt P13726); test: SPR as for KD; reference: wild-type D3H44 Fab; batch C (+)
[18] = molecular target: tissue factor (TF) antigen (UniProt P13726); test: SPR, Fab captured on anti-penta His surface, TF as analyte, 1:1 fit
[19] = molecular target: tissue factor (TF) antigen (UniProt P13726); test: SPR, ProteOn XPR36; His-tagged Fab captured on anti-penta-His, TF injected; 1:1 fit; batch C (+)
[20] = molecular target: tissue factor (TF) antigen (UniProt P13726); test: SPR, Fab captured on anti-penta-His, TF as analyte, 1:1 fit; estimated value from Fab differing only in L chain tag
[21] = molecular target: tissue factor (TF) antigen (UniProt P13726); test: SPR, Fab captured on anti-penta-His, TF as analyte, 1:1 fit; estimated (*) from Fab differing only in L chain tag
[22] = molecular target: tissue factor (TF) antigen (UniProt P13726); test: vs wild-type D3H44 Fab (estimated wt KD […]); SPR; estimated (*) from Fab differing only in L chain tag

H1L1:H1L2 normalized median ratio [1]: 6% | H2L2:H2L1 normalized median ratio [1]: 6% | H1L1:H1L2 normalized median ratio [2]: 94% | H1L1:H1L2 normalized median scalar value ln(r1/f1) [2]: 2.78 | H2L2:H2L1 normalized median ratio [2]: 94% | H1L1:H1L2 normalized median ratio [3]: 92% | H1L1:H1L2 normalized median scalar value ln(r1/f1) [3]: 2.42 | H2L2:H2L1 normalized median ratio [3]: 92% | H1L1:H1L2 normalized median ratio [4]: 8% | H2L2:H2L1 normalized median ratio [4]: 8%
Substance: D3H44 Fab heavy chain L45P_K145T_H172R_Q179E

H2L2:H2L1 normalized median ratio [5]: 96 of 100 | H2L2:H2L1 normalized median ratio [6]: 4 of 100
Substance: D3H44 Fab heavy chain S186R (Kabat), C-terminal ABD2-His6 tag

change in median KD compared to wild type, -(log(KD design)-log(KD wt)) [7]: -0.08 | Kd [8]: 0.19 nM
Substance: D3H44 Fab heterodimer (H1L1) of LCCA Set # 9397: H1 L124R_Q179K, L1 V133G_Q160E_S176D_T180E

change in median KD compared to wild type, -(log(KD design)-log(KD wt)) [7]: 0.03 and 0.08 | Kd [8]: 0.13 nM
Substance: D3H44 Fab heterodimer (H1L1) of LCCA Sets # 9120, 9121: H1 L124E_H172T, L1 V133G_N137K_S174R_S176R

change in median KD compared to wild type, -(log(KD design)-log(KD wt)) [7]: -0.16 | Kd [8]: 0.23 nM
Substance: D3H44 Fab heterodimer (H1L1) of LCCA Sets # 9419, 9420, 9423, 9425, 9426: H1 L124R_Q179K, L1 V133G_S176D_T178E_T180E

change in median KD compared to wild type, -(log(KD design)-log(KD wt)) [9]: -0.28 | Kd [10]: 0.3 nM
Substance: D3H44 Fab heterodimer, H1 L45P_L143E_K145T_Q179E / L1 P44F_Q124R_Q160K_T178R (H1L1 Fab of LCCA Set # 9754)

change in median KD compared to wild type, -(log(KD design)-log(KD wt)) [9]: -0.04 | Kd [10]: 0.17 nM
Substance: D3H44 Fab heterodimer, H1 L124A_L143F_Q179K / L1 Q124E_V133W_S176T_T178L_T180E (H1L1 Fab of LCCA Set # 9096, 9095 and 9094)

Change in median values of KD of h1l1 Fab heterodimer compared to wild type (-(log(KD design)-log(KD wt))) [11]: -0.15 | Kd [12]: 0.22 nM
Substance: D3H44 Fab heterodimer, H1 L124R_Q179K / L1 Q124E_V133G_S176D_T178E_T180E (H1L1 Fab of LCCA Set # 9388)

change in median KD compared to wild type, -(log(KD design)-log(KD wt)) [9]: -0.15 | Kd [10]: 0.22 nM
Substance: D3H44 Fab heterodimer, H1 L124R_Q179K / L1 Q124E_V133G_S176D_T178E_T180E (H1L1 Fab of LCCA Set # 9392, 9394, 9395, 9376, 9380 and 9384)

Change in median values of KD of h1l1 Fab heterodimer compared to wild type (-(log(KD design)-log(KD wt))) [11]: -0.23 | Kd [12]: 0.26 nM
Substance: D3H44 Fab heterodimer, H1 L124R_S186K / L1 Q124E_V133G_S176D_T178D_T180E (H1L1 Fab of LCCA Sets # 9451, 9459, 9460, 9461, 9449)

change in median KD compared to wild type, -(log(KD design)-log(KD wt)) [9]: -0.07 | Kd [10]: 0.18 nM
Substance: D3H44 Fab heterodimer, H1 L124R_S186K / L1 V133G_S176D_T178D_T180E (H1L1 Fab of LCCA Set # 9471 and 9473)

Change in median values of KD of h1l1 Fab heterodimer compared to wild type (-(log(KD design)-log(KD wt))) [11]: -0.07 | Kd [12]: 0.18 nM
Substance: D3H44 Fab heterodimer, H1 L124R_S186K / L1 V133G_S176D_T178D_T180E (H1L1 Fab of LCCA Sets # 9484, 9481, 9483)

Change in median values of KD of h1l1 Fab heterodimer compared to wild type (-(log(KD design)-log(KD wt))) [11]: -0.15 | Kd [12]: 0.22 nM
Substance: D3H44 Fab heterodimer, H1 L124R_S186R / L1 V133G_S176D_T178E_T180E (H1L1 Fab of LCCA Sets # 9541, 9544, 9542)

Kd [13]: 0.16 nM | Change in median values of KD of h1l1 Fab heterodimer compared to wild type (-(log(KD design)-log(KD wt))) [14]: -0.01
Substance: D3H44 Fab heterodimer, H1 Q39E_K145T_Q179E / L1 Q38R_S131K (H1L1 Fab of LCCA set 9814)

Kd [13]: 0.18 nM | Change in median values of KD of h1l1 Fab heterodimer compared to wild type (-(log(KD design)-log(KD wt))) [14]: -0.07
Substance: D3H44 Fab heterodimer, H1 Q39E_L143E_K145T_H172R / L1 Q38R_Q124R_Q160K_T178R (H1L1 Fab of LCCA set 9818)

Kd [13]: 0.15 nM | Change in median values of KD of h1l1 Fab heterodimer compared to wild type (-(log(KD design)-log(KD wt))) [14]: 0.03
Substance: D3H44 Fab heterodimer, H1 Q39E_L143E_K145T_H172R_Q179E / L1 Q38R_Q124R_Q160K_T178R (H1L1 Fab of LCCA set 9819)

Kd [15]: 0.15 nM | Change in median values of KD of h1l1 Fab heterodimer compared to wild type (-(log(KD design)-log(KD wt))) [16]: 0.03
Substance: D3H44 Fab heterodimer, H1 Q39R_H172R_S186R / L1 Q38E_Q124E_Q160E_T180E (H1L1 Fab of LCCA Set # 9824)

Kd [15]: 0.12 nM | Change in median values of KD of h1l1 Fab heterodimer compared to wild type (-(log(KD design)-log(KD wt))) [16]: 0.13
Substance: D3H44 Fab heterodimer, H1 Q179K / L1 Q124E_S131T_T178F_T180E (H1L1 Fab of LCCA Sets # 9778, 9777)

Kd [15]: 0.16 nM | Change in median values of KD of h1l1 Fab heterodimer compared to wild type (-(log(KD design)-log(KD wt))) [16]: 0
Substance: D3H44 Fab heterodimer, H1 Q179R / L1 S131E (H1L1 Fab of LCCA Set # 9984)

Kd [15]: 0.15 nM | Change in median values of KD of h1l1 Fab heterodimer compared to wild type (-(log(KD design)-log(KD wt))) [16]: 0.02
Substance: D3H44 Fab heterodimer, H1 S186K / L1 Q124E_T178E_T180E (H1L1 Fab of LCCA Set # 9852)

change in median KD compared to wild type, -(log(KD design)-log(KD wt)) [17]: 0.12 | Change in KD with respect to wild type (-(log(KD design) - log(KD wt))) [18]: 0.12 | Kd [18]: 0.12 nM | Kd [19]: 0.12 nM
Substance: D3H44 Fab heterodimer, H1L1 of LCCA Set # 9611 (H1 L143E_K145T_H172R; L1 Q124R_Q160K_T178R)

change in median KD compared to wild type, -(log(KD design)-log(KD wt)) [17]: -0.02 | Kd [19]: 0.17 nM
Substance: D3H44 Fab heterodimer, H1L1 of LCCA Sets # 9807 and 9808 (H1 Q179R; L1 Q124E_S176L_T180E)

change in median KD compared to wild type, -(log(KD design)-log(KD wt)) [17]: 0.15 | Kd [19]: 0.11 nM
Substance: D3H44 Fab heterodimer, H1L1 of LCCA Sets # 9881 and 9882 (H1 S186R; L1 Q124E_S131T_T178F_T180E)

Change in KD with respect to wild type (-(log(KD design) - log(KD wt))) [20]: -0.12 | Kd [20]: 0.21 nM
Substance: D3H44 Fab heterodimer, H L124E_L143E_K145T / L Q124K_V133G_S176R_T178K

Change in KD with respect to wild type (-(log(KD design) - log(KD wt))) [20]: -0.07 | Kd [20]: 0.18 nM
Substance: D3H44 Fab heterodimer, H L124E_L143E_K145T / L Q124K_V133G_S176R_T178R

Kd [21]: 0.06 nM | change in median KD compared to wild type, -(log(KD design)-log(KD wt)) [22]: 0.39
Substance: H1L1 Fab heterodimer of LCCA set 9623 (D3H44 Fab, H1 L143E_K145T_Q179D, L1 Q124R_Q160K_T178R; L chain tag differs from the measured Fab)

Kd [21]: 0.15 nM | change in median KD compared to wild type, -(log(KD design)-log(KD wt)) [22]: 0.02
Substance: H1L1 Fab heterodimer of LCCA set 9651 (D3H44 Fab, H1 L143E_K145T_Q179E, L1 Q124R_Q160K_T178R; L chain tag differs from the measured Fab)

Kd [21]: 0.16 nM | change in median KD compared to wild type, -(log(KD design)-log(KD wt)) [22]: 0
Substance: H1L1 Fab heterodimer of LCCA sets 9140, 9142, 9144 and 9146 (D3H44 Fab, H1 L124E_K145T_Q179E, L1 S131K_V133G_S176R; L chain tag differs from the measured Fab)

Kd [21]: 0.27 nM | change in median KD compared to wild type, -(log(KD design)-log(KD wt)) [22]: -0.23
Substance: H1L1 Fab heterodimer of LCCA sets 9663 and 9666 (D3H44 Fab, H1 L143E_K145T_Q179E, L1 Q124R_T178R; L chain tag differs from the measured Fab)
